In IntAct's records for PubMed 36931259:

B1: 14-3-3 protein sigma (Homo sapiens), P31947 (parent)
chain: MERASLIQKAKLAEQAERYEDMAAFMKGAVEKGEELSCEERNLLSVAYKNVVGGQRAAWRVLSSIEQKSNEEGSEEKGPEVREYREKVETELQGVCDTVLGLLDSHLIKEAGDAESRVFYLKMKGDYYRYLAEVATGDDKKRIIDSARSAYQEAMDISKKEMPPTNPIRLGLALNFSVFHYEIANSPEEAISLAKTTFDEAMADLHTLSEDSYKDSTLIMQLLRDNLTLWTADNAGEEGGEAPQEPQS
partner: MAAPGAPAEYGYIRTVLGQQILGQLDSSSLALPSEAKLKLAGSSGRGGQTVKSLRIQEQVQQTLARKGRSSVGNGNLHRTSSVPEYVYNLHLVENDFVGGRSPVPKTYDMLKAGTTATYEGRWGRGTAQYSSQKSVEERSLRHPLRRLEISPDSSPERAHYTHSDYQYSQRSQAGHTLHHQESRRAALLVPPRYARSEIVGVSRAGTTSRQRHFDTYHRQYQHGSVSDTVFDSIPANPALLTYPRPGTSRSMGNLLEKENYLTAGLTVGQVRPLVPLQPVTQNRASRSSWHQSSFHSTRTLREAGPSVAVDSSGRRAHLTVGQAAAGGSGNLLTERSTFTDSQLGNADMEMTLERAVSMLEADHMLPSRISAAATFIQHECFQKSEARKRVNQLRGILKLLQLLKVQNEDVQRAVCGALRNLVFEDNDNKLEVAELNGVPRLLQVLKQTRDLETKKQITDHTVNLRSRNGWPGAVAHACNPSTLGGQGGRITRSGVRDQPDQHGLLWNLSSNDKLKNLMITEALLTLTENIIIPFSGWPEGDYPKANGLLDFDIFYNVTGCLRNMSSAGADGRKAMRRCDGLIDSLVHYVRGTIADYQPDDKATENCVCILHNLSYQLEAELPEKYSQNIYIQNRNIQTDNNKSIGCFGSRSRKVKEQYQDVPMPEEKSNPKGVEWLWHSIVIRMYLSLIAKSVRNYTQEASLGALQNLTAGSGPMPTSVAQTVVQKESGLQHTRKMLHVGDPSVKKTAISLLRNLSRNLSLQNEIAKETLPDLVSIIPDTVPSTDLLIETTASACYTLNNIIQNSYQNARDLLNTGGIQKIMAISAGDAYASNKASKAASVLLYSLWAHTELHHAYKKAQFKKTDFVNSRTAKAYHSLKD
B2: 14-3-3 protein sigma (Homo sapiens), P31947 (parent)
chain: B1 chain
partner: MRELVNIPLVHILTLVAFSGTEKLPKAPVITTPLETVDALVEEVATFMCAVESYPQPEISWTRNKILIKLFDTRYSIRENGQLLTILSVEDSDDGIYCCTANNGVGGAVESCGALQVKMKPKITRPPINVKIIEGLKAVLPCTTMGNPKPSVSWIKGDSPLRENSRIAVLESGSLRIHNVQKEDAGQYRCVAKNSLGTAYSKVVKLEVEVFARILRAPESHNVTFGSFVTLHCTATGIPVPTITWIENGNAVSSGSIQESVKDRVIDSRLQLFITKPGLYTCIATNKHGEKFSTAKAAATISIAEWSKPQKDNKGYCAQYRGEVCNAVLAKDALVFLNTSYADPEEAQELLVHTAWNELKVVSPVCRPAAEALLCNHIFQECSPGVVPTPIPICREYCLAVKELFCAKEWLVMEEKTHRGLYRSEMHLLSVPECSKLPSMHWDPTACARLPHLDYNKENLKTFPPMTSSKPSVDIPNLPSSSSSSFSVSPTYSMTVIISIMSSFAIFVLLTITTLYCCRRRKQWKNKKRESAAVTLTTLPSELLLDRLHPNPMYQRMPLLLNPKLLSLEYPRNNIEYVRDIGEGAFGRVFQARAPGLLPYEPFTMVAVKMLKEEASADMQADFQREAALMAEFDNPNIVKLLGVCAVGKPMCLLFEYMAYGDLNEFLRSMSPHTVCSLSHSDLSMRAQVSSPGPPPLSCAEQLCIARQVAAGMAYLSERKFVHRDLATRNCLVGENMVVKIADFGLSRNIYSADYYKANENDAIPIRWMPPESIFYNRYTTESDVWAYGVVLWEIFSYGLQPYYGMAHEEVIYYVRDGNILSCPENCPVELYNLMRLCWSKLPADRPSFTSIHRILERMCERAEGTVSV
B3: 14-3-3 protein sigma (Homo sapiens), P31947 (parent)
chain: B1 chain
partner: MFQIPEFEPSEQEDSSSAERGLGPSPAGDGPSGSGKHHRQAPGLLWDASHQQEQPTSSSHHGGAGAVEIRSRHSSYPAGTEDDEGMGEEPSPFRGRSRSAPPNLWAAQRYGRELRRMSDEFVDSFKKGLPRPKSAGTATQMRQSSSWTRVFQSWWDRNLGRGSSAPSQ
B4: 14-3-3 protein sigma (Homo sapiens), P31947 (parent)
chain: B1 chain
partner: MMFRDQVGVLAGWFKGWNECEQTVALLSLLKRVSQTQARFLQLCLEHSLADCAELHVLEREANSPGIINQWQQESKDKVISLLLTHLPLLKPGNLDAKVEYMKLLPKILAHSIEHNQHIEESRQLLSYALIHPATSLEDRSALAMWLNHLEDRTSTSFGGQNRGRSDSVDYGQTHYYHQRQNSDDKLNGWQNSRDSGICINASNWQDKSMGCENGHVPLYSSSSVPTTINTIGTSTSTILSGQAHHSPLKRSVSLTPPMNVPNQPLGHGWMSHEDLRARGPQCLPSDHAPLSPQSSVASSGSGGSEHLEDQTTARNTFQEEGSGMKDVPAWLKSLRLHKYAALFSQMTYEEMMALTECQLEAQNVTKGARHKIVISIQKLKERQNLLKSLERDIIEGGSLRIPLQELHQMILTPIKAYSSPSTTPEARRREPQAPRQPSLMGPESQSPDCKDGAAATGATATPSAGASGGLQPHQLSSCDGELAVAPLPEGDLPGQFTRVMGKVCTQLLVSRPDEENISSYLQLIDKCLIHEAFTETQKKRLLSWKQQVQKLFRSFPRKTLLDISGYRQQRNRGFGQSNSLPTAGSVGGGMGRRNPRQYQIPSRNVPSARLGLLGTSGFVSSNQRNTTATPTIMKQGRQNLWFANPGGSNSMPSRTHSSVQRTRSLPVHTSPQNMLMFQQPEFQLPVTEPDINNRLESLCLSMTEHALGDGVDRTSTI
B5: 14-3-3 protein sigma (Homo sapiens), P31947 (parent)
chain: B1 chain
partner: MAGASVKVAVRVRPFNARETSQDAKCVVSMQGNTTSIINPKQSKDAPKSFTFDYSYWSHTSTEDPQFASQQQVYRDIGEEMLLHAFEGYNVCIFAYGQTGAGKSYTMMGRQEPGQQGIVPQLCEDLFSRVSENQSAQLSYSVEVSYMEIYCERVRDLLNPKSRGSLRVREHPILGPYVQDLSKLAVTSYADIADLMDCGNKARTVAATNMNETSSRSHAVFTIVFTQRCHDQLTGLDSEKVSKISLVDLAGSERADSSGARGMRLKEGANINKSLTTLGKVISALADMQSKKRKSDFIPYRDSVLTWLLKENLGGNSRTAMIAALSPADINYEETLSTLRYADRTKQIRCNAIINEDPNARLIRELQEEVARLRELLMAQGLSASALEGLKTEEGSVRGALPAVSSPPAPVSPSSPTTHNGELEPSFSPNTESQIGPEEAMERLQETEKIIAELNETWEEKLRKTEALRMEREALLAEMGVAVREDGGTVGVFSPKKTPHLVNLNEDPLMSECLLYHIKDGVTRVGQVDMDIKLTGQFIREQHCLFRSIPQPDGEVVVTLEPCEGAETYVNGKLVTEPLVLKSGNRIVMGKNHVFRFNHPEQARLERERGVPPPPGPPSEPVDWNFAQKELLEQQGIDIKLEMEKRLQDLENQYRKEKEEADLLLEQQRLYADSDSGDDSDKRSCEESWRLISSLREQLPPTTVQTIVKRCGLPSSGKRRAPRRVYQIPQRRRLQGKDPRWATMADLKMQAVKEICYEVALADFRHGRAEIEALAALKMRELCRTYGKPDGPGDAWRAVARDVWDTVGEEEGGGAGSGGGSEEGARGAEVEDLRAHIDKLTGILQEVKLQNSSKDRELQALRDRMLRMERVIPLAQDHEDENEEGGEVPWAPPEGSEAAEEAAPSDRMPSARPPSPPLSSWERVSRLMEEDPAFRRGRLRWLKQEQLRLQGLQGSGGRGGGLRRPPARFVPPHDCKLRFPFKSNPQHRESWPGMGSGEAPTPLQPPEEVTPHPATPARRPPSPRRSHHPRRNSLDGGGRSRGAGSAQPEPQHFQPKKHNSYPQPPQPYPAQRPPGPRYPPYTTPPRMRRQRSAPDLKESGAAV
B6: 14-3-3 protein sigma (Homo sapiens), P31947 (parent)
chain: B1 chain
partner: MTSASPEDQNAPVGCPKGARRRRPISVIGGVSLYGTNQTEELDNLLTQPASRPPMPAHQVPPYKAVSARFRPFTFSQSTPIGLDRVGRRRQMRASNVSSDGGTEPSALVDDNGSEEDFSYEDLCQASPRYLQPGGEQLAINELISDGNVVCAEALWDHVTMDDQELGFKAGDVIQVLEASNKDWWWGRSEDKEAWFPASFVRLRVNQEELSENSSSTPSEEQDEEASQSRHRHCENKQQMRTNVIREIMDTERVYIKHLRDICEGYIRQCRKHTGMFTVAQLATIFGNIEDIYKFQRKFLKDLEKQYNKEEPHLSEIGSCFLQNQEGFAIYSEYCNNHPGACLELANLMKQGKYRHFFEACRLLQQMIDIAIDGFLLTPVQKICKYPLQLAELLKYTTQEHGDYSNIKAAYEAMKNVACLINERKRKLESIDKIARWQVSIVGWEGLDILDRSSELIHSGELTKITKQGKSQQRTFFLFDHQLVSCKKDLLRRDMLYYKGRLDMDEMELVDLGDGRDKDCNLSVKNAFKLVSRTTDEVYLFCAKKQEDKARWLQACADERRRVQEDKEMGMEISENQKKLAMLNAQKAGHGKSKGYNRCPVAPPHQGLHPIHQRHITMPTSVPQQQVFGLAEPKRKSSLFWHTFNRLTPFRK

Variants of: B1
Conditions: with pkp2_human PKP2, Q99959

| effect of a mutation on the interaction | Variant |
| --- | --- |
| decreasing interaction strength | K49E;R56E;V178D |

Variants of: B2
Conditions: with musk_human MUSK

| effect of a mutation on the interaction | Variant |
| --- | --- |
| decreasing interaction strength | K49E;R56E;V178D |

Variants of: B3
Conditions: with bad_human BAD

| effect of a mutation on the interaction | Variant |
| --- | --- |
| decreasing interaction strength | K49E;R56E;V178D |

Variants of: B4
Conditions: with smag1_human SAMD4A

| effect of a mutation on the interaction | Variant |
| --- | --- |
| decreasing interaction strength | K49E;R56E;V178D |

Variants of: B5
Conditions: with kif1c_human KIF1C

| effect of a mutation on the interaction | Variant |
| --- | --- |
| decreasing interaction strength | K49E;R56E;V178D |

Variants of: B6
Conditions: with spt13_human SPATA13, Q96N96

| effect of a mutation on the interaction | Variant |
| --- | --- |
| decreasing interaction strength | K49E;R56E;V178D |
